Measurements from patent publication US20220402983A1 (Janssen / Centocor, published 2022).
*1 amine or outer side, *2 acyl side, *3 side chain or, on linkers, in order; H or OH if unused. Bridges are numbered along the chain shown (N, C = ends). Where no end group is shown, it is not given here. [ ]: non-standard residue; d: D form. dPhe(3,4-diOMe) = D-Phe with 3,4-dimethoxy, COc1ccc(C[C@@H](N[*:1])C(=O)[*:2])cc1OC; αMe2Nal = alpha-methyl-2-Nal, C[C@@](Cc1ccc2ccccc2c1)(N[*:1])C(=O)[*:2]; Phe(3,4-(OMe)2) = COc1ccc(C[C@H](N)C(=O)O)cc1OC; Trp(5-F) = N[C@@H](Cc1c[nH]c2ccc(F)cc12)C(=O)O; Trp(7-Me) = Cc1cccc2c(C[C@H](N)C(=O)O)c[nH]c12; 2Nal = N[C@@H](Cc1ccc2ccccc2c1)C(=O)O; d(αMeF) = C[C@@](N)(Cc1ccccc1)C(=O)O; AEF = NCCOc1ccc(C[C@H](N)C(=O)O)cc1; αMeF = C[C@](N)(Cc1ccccc1)C(=O)O; αMeE = C[C@](N)(CCC(=O)O)C(=O)O; β3hF = N[C@H](CC(=O)O)Cc1ccccc1; Pen = CC(C)(S)[C@H](N)C(=O)O; αMeK = C[C@](N)(CCCCN)C(=O)O; αMeC = C[C@](N)(CS)C(=O)O; dDap = NC[C@@H](N)C(=O)O; Ac5c = NC1(C(=O)O)CCCC1; Thp = NC1(C(=O)O)CCOCC1; Abu = CC[C@H](N)C(=O)O; Aib = CC(C)(N)C(=O)O; Ahx = NCCCCCC(=O)O

T1: human IL-23R (interleukin-23 receptor) (human, UniProt Q5VWK5 24-629)
T1 sequence (looked up): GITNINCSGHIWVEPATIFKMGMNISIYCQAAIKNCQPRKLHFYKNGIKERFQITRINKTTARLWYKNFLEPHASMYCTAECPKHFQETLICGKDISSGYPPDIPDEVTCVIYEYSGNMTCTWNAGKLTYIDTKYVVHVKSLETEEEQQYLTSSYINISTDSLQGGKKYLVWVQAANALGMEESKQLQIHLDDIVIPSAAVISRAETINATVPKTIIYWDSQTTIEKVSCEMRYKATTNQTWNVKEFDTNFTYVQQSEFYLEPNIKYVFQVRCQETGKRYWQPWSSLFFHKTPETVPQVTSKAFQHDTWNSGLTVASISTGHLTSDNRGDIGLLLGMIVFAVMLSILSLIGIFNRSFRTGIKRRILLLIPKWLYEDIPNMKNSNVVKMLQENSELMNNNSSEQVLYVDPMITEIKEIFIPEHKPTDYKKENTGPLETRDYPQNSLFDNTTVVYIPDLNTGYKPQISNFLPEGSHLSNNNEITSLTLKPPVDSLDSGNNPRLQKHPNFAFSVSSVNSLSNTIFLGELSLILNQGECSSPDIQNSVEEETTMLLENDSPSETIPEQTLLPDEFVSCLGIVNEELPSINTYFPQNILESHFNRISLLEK

B1: Compound No. 71 (peptide)
peptide: Ac-[Pen]NT[Trp(7-Me)]K(Ac)[Pen][AEF][2Nal][αMeK]K(Ac)N[Aib][β3hF]-NH2
modifications: disulfide 1-6
SMILES: CC(=O)NCCCC[C@@H]1NC(=O)[C@H](Cc2c[nH]c3c(C)cccc23)NC(=O)[C@H]([C@@H](C)O)NC(=O)[C@H](CC(N)=O)NC(=O)[C@@H](NC(C)=O)C(C)(C)SSC(C)(C)[C@@H](C(=O)N[C@@H](Cc2ccc(OCCN)cc2)C(=O)N[C@@H](Cc2ccc3ccccc3c2)C(=O)N[C@@](C)(CCCCN)C(=O)N[C@@H](CCCCNC(C)=O)C(=O)N[C@@H](CC(N)=O)C(=O)NC(C)(C)C(=O)N[C@H](CC(N)=O)Cc2ccccc2)NC1=O
B2: Compound No. 81 (peptide)
peptide: Ac-[dR][Abu]QTWQC[AEF][2Nal][Thp][αMeE]N[Trp(5-F)]-NH2
modifications: thioether 2-7
B3: Compound No. 74 (peptide)
peptide: Ac-[Pen]N[dD][Trp(7-Me)]K(Ac)[Pen][AEF][2Nal][αMeK]K(Ac)N[dL]-NH2
modifications: disulfide 1-6
SMILES: CC(=O)NCCCC[C@@H]1NC(=O)[C@H](Cc2c[nH]c3c(C)cccc23)NC(=O)[C@@H](CC(=O)O)NC(=O)[C@H](CC(N)=O)NC(=O)[C@@H](NC(C)=O)C(C)(C)SSC(C)(C)[C@@H](C(=O)N[C@@H](Cc2ccc(OCCN)cc2)C(=O)N[C@@H](Cc2ccc3ccccc3c2)C(=O)N[C@@](C)(CCCCN)C(=O)N[C@@H](CCCCNC(C)=O)C(=O)N[C@@H](CC(N)=O)C(=O)N[C@H](CC(C)C)C(N)=O)NC1=O
B4: Compound No. 82 (peptide)
peptide: Ac-[Pen]QTWK(Ac)[Pen][AEF][2Nal][αMeK]K(Ac)N[αMeF]-NH2
modifications: disulfide 1-6
SMILES: CC(=O)NCCCC[C@@H]1NC(=O)[C@H](Cc2c[nH]c3ccccc23)NC(=O)[C@H]([C@@H](C)O)NC(=O)[C@H](CCC(N)=O)NC(=O)[C@@H](NC(C)=O)C(C)(C)SSC(C)(C)[C@@H](C(=O)N[C@@H](Cc2ccc(OCCN)cc2)C(=O)N[C@@H](Cc2ccc3ccccc3c2)C(=O)N[C@@](C)(CCCCN)C(=O)N[C@@H](CCCCNC(C)=O)C(=O)N[C@@H](CC(N)=O)C(=O)N[C@@](C)(Cc2ccccc2)C(N)=O)NC1=O
B5: Compound No. 84 (peptide)
peptide: Ac-[Pen]QTWK(Ac)[Pen][AEF][2Nal][αMeK]K(Ac)N[Thp]-NH2
modifications: disulfide 1-6
SMILES: CC(=O)NCCCC[C@@H]1NC(=O)[C@H](Cc2c[nH]c3ccccc23)NC(=O)[C@H]([C@@H](C)O)NC(=O)[C@H](CCC(N)=O)NC(=O)[C@@H](NC(C)=O)C(C)(C)SSC(C)(C)[C@@H](C(=O)N[C@@H](Cc2ccc(OCCN)cc2)C(=O)N[C@@H](Cc2ccc3ccccc3c2)C(=O)N[C@@](C)(CCCCN)C(=O)N[C@@H](CCCCNC(C)=O)C(=O)N[C@@H](CC(N)=O)C(=O)NC2(C(N)=O)CCOCC2)NC1=O
B6: Compound No. 68 (peptide)
peptide: Ac-[Pen]NT[Trp(7-Me)]K(Ac)[Pen][AEF][2Nal][αMeK]K(Ac)N[dL][αMeF]-NH2
modifications: disulfide 1-6
SMILES: CC(=O)NCCCC[C@@H]1NC(=O)[C@H](Cc2c[nH]c3c(C)cccc23)NC(=O)[C@H]([C@@H](C)O)NC(=O)[C@H](CC(N)=O)NC(=O)[C@@H](NC(C)=O)C(C)(C)SSC(C)(C)[C@@H](C(=O)N[C@@H](Cc2ccc(OCCN)cc2)C(=O)N[C@@H](Cc2ccc3ccccc3c2)C(=O)N[C@@](C)(CCCCN)C(=O)N[C@@H](CCCCNC(C)=O)C(=O)N[C@@H](CC(N)=O)C(=O)N[C@H](CC(C)C)C(=O)N[C@@](C)(Cc2ccccc2)C(N)=O)NC1=O
B7: Compound No. 83 (peptide)
peptide: [dR][Abu]QTWQ[αMeC][AEF][2Nal][Thp]EN[αMeF]-NH2
modifications: thioether 2-7; not fully specified (N-terminus); printed as pr-[(D)Arg]-[Abu]-Q-T-W-Q-[aMeCys]-Phe[4-(2-aminoethoxy)]-[2-Nal]-[THP]-E-N-[a-MePhe]-NH2
B8: Compound No. 79 (peptide)
peptide: Ac-[dR][Abu]QTWQC[AEF][2Nal][Thp][αMeE]N[dPhe(3,4-diOMe)]-NH2
modifications: thioether 2-7
B9: Compound No. 73 (peptide)
peptide: Ac-[Pen]N[dK][Trp(7-Me)]K(Ac)[Pen][AEF][2Nal][αMeK]K(Ac)N[dL]-NH2
modifications: disulfide 1-6
SMILES: CC(=O)NCCCC[C@@H]1NC(=O)[C@H](Cc2c[nH]c3c(C)cccc23)NC(=O)[C@@H](CCCCN)NC(=O)[C@H](CC(N)=O)NC(=O)[C@@H](NC(C)=O)C(C)(C)SSC(C)(C)[C@@H](C(=O)N[C@@H](Cc2ccc(OCCN)cc2)C(=O)N[C@@H](Cc2ccc3ccccc3c2)C(=O)N[C@@](C)(CCCCN)C(=O)N[C@@H](CCCCNC(C)=O)C(=O)N[C@@H](CC(N)=O)C(=O)N[C@H](CC(C)C)C(N)=O)NC1=O
B10: Compound No. 72 (peptide)
peptide: Ac-[Pen]N[dDap][Trp(7-Me)]K(Ac)[Pen][AEF][2Nal][αMeK]K(Ac)N[dL]-NH2
modifications: disulfide 1-6
SMILES: CC(=O)NCCCC[C@@H]1NC(=O)[C@H](Cc2c[nH]c3c(C)cccc23)NC(=O)[C@@H](CN)NC(=O)[C@H](CC(N)=O)NC(=O)[C@@H](NC(C)=O)C(C)(C)SSC(C)(C)[C@@H](C(=O)N[C@@H](Cc2ccc(OCCN)cc2)C(=O)N[C@@H](Cc2ccc3ccccc3c2)C(=O)N[C@@](C)(CCCCN)C(=O)N[C@@H](CCCCNC(C)=O)C(=O)N[C@@H](CC(N)=O)C(=O)N[C@H](CC(C)C)C(N)=O)NC1=O
B11: Compound No. 87 (peptide)
peptide: XNTXQXFXKKNX
modifications: Ac-[Pen]-N-T-[W(7-Me)]-Q-[Pen]-Phe[4-(2-aminoethoxy)]-[2-Nal]-[a-MeLys]-[Lys(Ac)]-N-[THP]-NH2; cyclized: Pen-Pen disulfide bond
B12: Compound No. 80 (peptide)
peptide: Ac-[dR][Abu]QTWQC[AEF][2Nal][Thp]EN[αMe2Nal]-NH2
modifications: thioether 2-7
B13: Compound No. 70 (peptide)
peptide: Ac-[Pen]NT[Trp(7-Me)]K(Ac)[Pen][AEF][2Nal][αMeK]K(Ac)N[Aib][Ahx]-NH2
modifications: disulfide 1-6
SMILES: CC(=O)NCCCC[C@@H]1NC(=O)[C@H](Cc2c[nH]c3c(C)cccc23)NC(=O)[C@H]([C@@H](C)O)NC(=O)[C@H](CC(N)=O)NC(=O)[C@@H](NC(C)=O)C(C)(C)SSC(C)(C)[C@@H](C(=O)N[C@@H](Cc2ccc(OCCN)cc2)C(=O)N[C@@H](Cc2ccc3ccccc3c2)C(=O)N[C@@](C)(CCCCN)C(=O)N[C@@H](CCCCNC(C)=O)C(=O)N[C@@H](CC(N)=O)C(=O)NC(C)(C)C(=O)NCCCCCC(N)=O)NC1=O
B14: Compound No. 89 (peptide)
peptide: XNTXQXFXKKNF
modifications: Ac-[Pen]-N-T-[W(7-Me)]-Q-[Pen]-Phe[4-(2-aminoethoxy)]-[2-Nal]-[a-MeLys]-[Lys(Ac)]-N-[a-MePhe]-NH2; cyclized: Pen-Pen disulfide bond
B15: Compound No. 69 (peptide)
peptide: Ac-[Pen]NT[Trp(7-Me)]K(Ac)[Pen][AEF][2Nal][αMeK]K(Ac)N[dL][d(αMeF)]-NH2
modifications: disulfide 1-6
SMILES: CC(=O)NCCCC[C@@H]1NC(=O)[C@H](Cc2c[nH]c3c(C)cccc23)NC(=O)[C@H]([C@@H](C)O)NC(=O)[C@H](CC(N)=O)NC(=O)[C@@H](NC(C)=O)C(C)(C)SSC(C)(C)[C@@H](C(=O)N[C@@H](Cc2ccc(OCCN)cc2)C(=O)N[C@@H](Cc2ccc3ccccc3c2)C(=O)N[C@@](C)(CCCCN)C(=O)N[C@@H](CCCCNC(C)=O)C(=O)N[C@@H](CC(N)=O)C(=O)N[C@H](CC(C)C)C(=O)N[C@](C)(Cc2ccccc2)C(N)=O)NC1=O
B16: Compound No. 78 (peptide)
peptide: Ac-[dR][Abu]QTWQC[AEF][2Nal][Thp][αMeE]N[Phe(3,4-(OMe)2)]-NH2
modifications: thioether 2-7
B17: Compound No. 88 (peptide)
peptide: Ac-[dR][Pen]NTWK(Ac)[Pen][AEF][2Nal][Ac5c]EN[Thp]-NH2
modifications: disulfide 2-7
SMILES: CC(=O)NCCCC[C@@H]1NC(=O)[C@H](Cc2c[nH]c3ccccc23)NC(=O)[C@H]([C@@H](C)O)NC(=O)[C@H](CC(N)=O)NC(=O)[C@@H](NC(=O)[C@@H](CCCNC(=N)N)NC(C)=O)C(C)(C)SSC(C)(C)[C@@H](C(=O)N[C@@H](Cc2ccc(OCCN)cc2)C(=O)N[C@@H](Cc2ccc3ccccc3c2)C(=O)NC2(C(=O)N[C@@H](CCC(=O)O)C(=O)N[C@@H](CC(N)=O)C(=O)NC3(C(N)=O)CCOCC3)CCCC2)NC1=O
B18: Compound No. 85 (peptide)
peptide: [dR][Abu]QTWQC[AEF][2Nal][Thp]EN[αMeF]-NH2
modifications: thioether 2-7; not fully specified (N-terminus); printed as pr-[(D)Arg]-[Abu]-Q-T-W-Q-[Cys]-Phe[4-(2-aminoethoxy)]-[2-Nal]-[THP]-E-N-[a-MePhe]-NH2

The binders below were run against T1, human IL-23R (interleukin-23 receptor) (assay: cell-based or functional assay).

Binder	pStat3 HTRF (nM), IC50, DB cells IL23R pSTAT3 cell assay [nM]	PBMC pSTAT3 IC50 (nM)
B1	3.39	
B2		30
B3	73.1	
B4		54
B5		54
B6	7	
B7		33
B8		25
B9	51.1	
B10	52.6	
B11		3.6
B12		46
B13	1.22	
B14		12
B15	2.75	
B16		31
B17		3.7
B18		7.6
